Laboratory results reported in publication PMC9568494, “A portable electrochemiluminescence aptasensor for β-lactoglobulin detection”.

Target: T1, beta-lactoglobulin (β-LG) (Bos taurus (cow)?, UniProt P02754 17-178)
T1 sequence: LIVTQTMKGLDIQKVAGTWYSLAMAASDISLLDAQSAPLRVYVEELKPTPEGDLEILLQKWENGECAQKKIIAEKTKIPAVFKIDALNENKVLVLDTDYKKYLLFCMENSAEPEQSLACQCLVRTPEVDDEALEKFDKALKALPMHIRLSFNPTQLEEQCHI
Experiment: electrochemical (chronoamperometric) titration on gold screen-printed electrode, immobilized β-LG, streptavidin-HRP/TMB; 2 mM MgCl2 in BS-LG selection buffer; aptamer 40-100 nM; Kd read as inflection point; Kd assay: BS-LG, 50 mM Tris pH 7.4, 150 mM NaCl, 2 mM MgCl2 (wash and HRP step; aptamer diluent not stated), 30 min incubation, temperature not stated
Details: protein: commercial; chain copies: 2; label: 5'-biotin

B1: BLG14 aptamer (ssDNA)
DNA: GACGATCGGACCGCAGTACCCACCCACCAGCCCCAACATCATGCCCATCCGTGTGTG
How did the Kd turn out when B1 was run?
Its Kd is 56 nM.
